Measurements from patent US20180022780A1 (Bayer, published 2018).
Bridge positions count the residues as written; N and C are the ends. Square brackets hold non-standard residues; d marks the D form. Ends that are not written are not given here. * marks the point of attachment. Palmitoyl = CCCCCCCCCCCCCCCC(=O)*; NMeK = CN[C@@H](CCCCN)C(=O)O; Orn = NCCC[C@H](N)C(=O)O; Dab = NCC[C@H](N)C(=O)O; Dap = NC[C@H](N)C(=O)O

B1: [G^14, (Orn^16, D^21)lac]ADM(14-52) (peptide)
peptide: GG[Orn]RFGTDTVQKLAHQIYQFTDKDKDNVAPRSKISPQGY-NH2
modifications: lactam 3-8; N-terminus assumed
SMILES: CC[C@H](C)[C@H](NC(=O)[C@H](CCC(N)=O)NC(=O)[C@H](Cc1c[nH]cn1)NC(=O)[C@H](C)NC(=O)[C@H](CC(C)C)NC(=O)[C@H](CCCCN)NC(=O)[C@H](CCC(N)=O)NC(=O)[C@@H](NC(=O)[C@@H](NC(=O)[C@@H]1CC(=O)NCCC[C@H](NC(=O)CNC(=O)CN)C(=O)N[C@@H](CCCNC(=N)N)C(=O)N[C@@H](Cc2ccccc2)C(=O)NCC(=O)N[C@@H]([C@@H](C)O)C(=O)N1)[C@@H](C)O)C(C)C)C(=O)N[C@@H](Cc1ccc(O)cc1)C(=O)N[C@@H](CCC(N)=O)C(=O)N[C@@H](Cc1ccccc1)C(=O)N[C@H](C(=O)N[C@@H](CC(=O)O)C(=O)N[C@@H](CCCCN)C(=O)N[C@@H](CC(=O)O)C(=O)N[C@@H](CCCCN)C(=O)N[C@@H](CC(=O)O)C(=O)N[C@@H](CC(N)=O)C(=O)N[C@H](C(=O)N[C@@H](C)C(=O)N1CCC[C@H]1C(=O)N[C@@H](CCCNC(=N)N)C(=O)N[C@@H](CO)C(=O)N[C@@H](CCCCN)C(=O)N[C@H](C(=O)N[C@@H](CO)C(=O)N1CCC[C@H]1C(=O)N[C@@H](CCC(N)=O)C(=O)NCC(=O)N[C@@H](Cc1ccc(O)cc1)C(N)=O)[C@@H](C)CC)C(C)C)[C@@H](C)O
B2: [G^14, (Dab^16, D^21)lac]ADM(14-52) (peptide)
peptide: GG[Dab]RFGTDTVQKLAHQIYQFTDKDKDNVAPRSKISPQGY-NH2
modifications: lactam 3-8; N-terminus assumed
SMILES: CC[C@H](C)[C@H](NC(=O)[C@H](CCC(N)=O)NC(=O)[C@H](Cc1c[nH]cn1)NC(=O)[C@H](C)NC(=O)[C@H](CC(C)C)NC(=O)[C@H](CCCCN)NC(=O)[C@H](CCC(N)=O)NC(=O)[C@@H](NC(=O)[C@@H](NC(=O)[C@@H]1CC(=O)NCC[C@H](NC(=O)CNC(=O)CN)C(=O)N[C@@H](CCCNC(=N)N)C(=O)N[C@@H](Cc2ccccc2)C(=O)NCC(=O)N[C@@H]([C@@H](C)O)C(=O)N1)[C@@H](C)O)C(C)C)C(=O)N[C@@H](Cc1ccc(O)cc1)C(=O)N[C@@H](CCC(N)=O)C(=O)N[C@@H](Cc1ccccc1)C(=O)N[C@H](C(=O)N[C@@H](CC(=O)O)C(=O)N[C@@H](CCCCN)C(=O)N[C@@H](CC(=O)O)C(=O)N[C@@H](CCCCN)C(=O)N[C@@H](CC(=O)O)C(=O)N[C@@H](CC(N)=O)C(=O)N[C@H](C(=O)N[C@@H](C)C(=O)N1CCC[C@H]1C(=O)N[C@@H](CCCNC(=N)N)C(=O)N[C@@H](CO)C(=O)N[C@@H](CCCCN)C(=O)N[C@H](C(=O)N[C@@H](CO)C(=O)N1CCC[C@H]1C(=O)N[C@@H](CCC(N)=O)C(=O)NCC(=O)N[C@@H](Cc1ccc(O)cc1)C(N)=O)[C@@H](C)CC)C(C)C)[C@@H](C)O
B3: [K^14(PAM), (Dpr^16,E^21)lac, N-Me-K^46]ADM(14-52) (peptide)
peptide: K(Palmitoyl)G[Dap]RFGTETVQKLAHQIYQFTDKDKDNVAPRS[NMeK]ISPQGY-NH2
modifications: lactam 3-8; N-terminus assumed
SMILES: CCCCCCCCCCCCCCCC(=O)NCCCC[C@H](N)C(=O)NCC(=O)N[C@H]1CNC(=O)CC[C@@H](C(=O)N[C@H](C(=O)N[C@H](C(=O)N[C@@H](CCC(N)=O)C(=O)N[C@@H](CCCCN)C(=O)N[C@@H](CC(C)C)C(=O)N[C@@H](C)C(=O)N[C@@H](Cc2c[nH]cn2)C(=O)N[C@@H](CCC(N)=O)C(=O)N[C@H](C(=O)N[C@@H](Cc2ccc(O)cc2)C(=O)N[C@@H](CCC(N)=O)C(=O)N[C@@H](Cc2ccccc2)C(=O)N[C@H](C(=O)N[C@@H](CC(=O)O)C(=O)N[C@@H](CCCCN)C(=O)N[C@@H](CC(=O)O)C(=O)N[C@@H](CCCCN)C(=O)N[C@@H](CC(=O)O)C(=O)N[C@@H](CC(N)=O)C(=O)N[C@H](C(=O)N[C@@H](C)C(=O)N2CCC[C@H]2C(=O)N[C@@H](CCCNC(=N)N)C(=O)N[C@@H](CO)C(=O)N(C)[C@@H](CCCCN)C(=O)N[C@H](C(=O)N[C@@H](CO)C(=O)N2CCC[C@H]2C(=O)N[C@@H](CCC(N)=O)C(=O)NCC(=O)N[C@@H](Cc2ccc(O)cc2)C(N)=O)[C@@H](C)CC)C(C)C)[C@@H](C)O)[C@@H](C)CC)C(C)C)[C@@H](C)O)NC(=O)[C@H]([C@@H](C)O)NC(=O)CNC(=O)[C@H](Cc2ccccc2)NC(=O)[C@H](CCCNC(=N)N)NC1=O
B4: [G^14, (Dpr^16, D^21)lac]ADM(14-52) (peptide)
peptide: GG[Dap]RFGTDTVQKLAHQIYQFTDKDKDNVAPRSKISPQGY-NH2
modifications: lactam 3-8; N-terminus assumed
SMILES: CC[C@H](C)[C@H](NC(=O)[C@H](CCC(N)=O)NC(=O)[C@H](Cc1c[nH]cn1)NC(=O)[C@H](C)NC(=O)[C@H](CC(C)C)NC(=O)[C@H](CCCCN)NC(=O)[C@H](CCC(N)=O)NC(=O)[C@@H](NC(=O)[C@@H](NC(=O)[C@@H]1CC(=O)NC[C@H](NC(=O)CNC(=O)CN)C(=O)N[C@@H](CCCNC(=N)N)C(=O)N[C@@H](Cc2ccccc2)C(=O)NCC(=O)N[C@@H]([C@@H](C)O)C(=O)N1)[C@@H](C)O)C(C)C)C(=O)N[C@@H](Cc1ccc(O)cc1)C(=O)N[C@@H](CCC(N)=O)C(=O)N[C@@H](Cc1ccccc1)C(=O)N[C@H](C(=O)N[C@@H](CC(=O)O)C(=O)N[C@@H](CCCCN)C(=O)N[C@@H](CC(=O)O)C(=O)N[C@@H](CCCCN)C(=O)N[C@@H](CC(=O)O)C(=O)N[C@@H](CC(N)=O)C(=O)N[C@H](C(=O)N[C@@H](C)C(=O)N1CCC[C@H]1C(=O)N[C@@H](CCCNC(=N)N)C(=O)N[C@@H](CO)C(=O)N[C@@H](CCCCN)C(=O)N[C@H](C(=O)N[C@@H](CO)C(=O)N1CCC[C@H]1C(=O)N[C@@H](CCC(N)=O)C(=O)NCC(=O)N[C@@H](Cc1ccc(O)cc1)C(N)=O)[C@@H](C)CC)C(C)C)[C@@H](C)O
B5: [G^14, (Dpr^16, E^21)lac]ADM(14-52) (peptide)
peptide: GG[Dap]RFGTETVQKLAHQIYQFTDKDKDNVAPRSKISPQGY-NH2
modifications: lactam 3-8; N-terminus assumed
SMILES: CC[C@H](C)[C@H](NC(=O)[C@H](CCC(N)=O)NC(=O)[C@H](Cc1c[nH]cn1)NC(=O)[C@H](C)NC(=O)[C@H](CC(C)C)NC(=O)[C@H](CCCCN)NC(=O)[C@H](CCC(N)=O)NC(=O)[C@@H](NC(=O)[C@@H](NC(=O)[C@@H]1CCC(=O)NC[C@H](NC(=O)CNC(=O)CN)C(=O)N[C@@H](CCCNC(=N)N)C(=O)N[C@@H](Cc2ccccc2)C(=O)NCC(=O)N[C@@H]([C@@H](C)O)C(=O)N1)[C@@H](C)O)C(C)C)C(=O)N[C@@H](Cc1ccc(O)cc1)C(=O)N[C@@H](CCC(N)=O)C(=O)N[C@@H](Cc1ccccc1)C(=O)N[C@H](C(=O)N[C@@H](CC(=O)O)C(=O)N[C@@H](CCCCN)C(=O)N[C@@H](CC(=O)O)C(=O)N[C@@H](CCCCN)C(=O)N[C@@H](CC(=O)O)C(=O)N[C@@H](CC(N)=O)C(=O)N[C@H](C(=O)N[C@@H](C)C(=O)N1CCC[C@H]1C(=O)N[C@@H](CCCNC(=N)N)C(=O)N[C@@H](CO)C(=O)N[C@@H](CCCCN)C(=O)N[C@H](C(=O)N[C@@H](CO)C(=O)N1CCC[C@H]1C(=O)N[C@@H](CCC(N)=O)C(=O)NCC(=O)N[C@@H](Cc1ccc(O)cc1)C(N)=O)[C@@H](C)CC)C(C)C)[C@@H](C)O

How the values were obtained:
[1] = target: human adrenomedullin-receptor (human, UniProt Q16602 23-461); assay: cell-based or functional assay
human adrenomedullin-receptor, sequence (Q16602 23-461): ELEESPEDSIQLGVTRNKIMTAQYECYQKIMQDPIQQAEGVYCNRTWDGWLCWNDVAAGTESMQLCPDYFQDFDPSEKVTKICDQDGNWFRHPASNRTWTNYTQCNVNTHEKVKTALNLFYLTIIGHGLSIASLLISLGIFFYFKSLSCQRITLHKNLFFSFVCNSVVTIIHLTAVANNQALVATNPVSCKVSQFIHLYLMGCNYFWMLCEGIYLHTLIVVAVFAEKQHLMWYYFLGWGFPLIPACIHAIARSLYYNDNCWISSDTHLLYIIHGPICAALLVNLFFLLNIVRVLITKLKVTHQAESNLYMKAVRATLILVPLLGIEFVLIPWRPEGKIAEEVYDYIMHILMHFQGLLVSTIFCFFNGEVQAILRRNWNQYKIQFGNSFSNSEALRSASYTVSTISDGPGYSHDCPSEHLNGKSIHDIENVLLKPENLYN

[2] = target: CLR fused to EYFP with RAMP2 fused to ECFP; assay: cell-based or functional assay
CLR fused to EYFP with RAMP2 fused to ECFP, sequence (Q16602 whole entry, chain 1 of 2, the tested form may be a part): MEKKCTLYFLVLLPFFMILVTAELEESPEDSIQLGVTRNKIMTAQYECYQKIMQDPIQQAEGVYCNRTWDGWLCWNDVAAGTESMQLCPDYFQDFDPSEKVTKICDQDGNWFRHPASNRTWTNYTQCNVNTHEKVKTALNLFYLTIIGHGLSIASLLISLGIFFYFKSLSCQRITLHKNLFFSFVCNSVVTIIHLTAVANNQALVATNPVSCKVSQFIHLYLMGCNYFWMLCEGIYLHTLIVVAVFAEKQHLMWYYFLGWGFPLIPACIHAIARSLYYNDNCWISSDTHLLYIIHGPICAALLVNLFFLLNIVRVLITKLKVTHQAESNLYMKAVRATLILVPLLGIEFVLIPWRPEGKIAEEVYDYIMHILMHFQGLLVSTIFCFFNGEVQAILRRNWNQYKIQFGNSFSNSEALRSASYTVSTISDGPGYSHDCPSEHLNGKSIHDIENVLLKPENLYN
CLR fused to EYFP with RAMP2 fused to ECFP, sequence (O60895 whole entry, chain 2 of 2, further chain, the tested form may be a part): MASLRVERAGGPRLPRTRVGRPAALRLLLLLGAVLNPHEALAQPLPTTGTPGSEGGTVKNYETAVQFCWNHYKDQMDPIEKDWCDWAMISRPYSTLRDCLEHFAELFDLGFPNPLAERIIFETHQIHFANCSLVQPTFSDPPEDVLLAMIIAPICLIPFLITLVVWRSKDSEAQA

Row | EC50 [nM], aequorin luminescence of CHO adrenomedullin-receptor reporter cells [1] | EC50 [nM], cAMP assay (CRE-luciferase luminescence, HEK293 cells) [2] | Binder
1 | 17.3 nM | 20 nM | GGDRFGT[Orn]TVQKLAHQIYQFTDKDKDNVAPRSKISPQGY-NH2 (lactam 3-8) [[G^14, (D^16, Orn^21)lac]ADM(14-52)]
2 | > 1000 nM | > 1000 nM | B1
3 | 21.1 nM | 21 nM | GGDRFGT[Dab]TVQKLAHQIYQFTDKDKDNVAPRSKISPQGY-NH2 (lactam 3-8) [[G^14, (D^16, Dab^21)lac]ADM(14-52)]
4 | > 1000 nM | 112 nM | B2
5 | 56 nM | 3.4 nM | B3
6 | > 1000 nM | 303 nM | GGERFGT[Dap]TVQKLAHQIYQFTDKDKDNVAPRSKISPQGY-NH2 (lactam 3-8) [[G^14, (E^16, Dpr^21)lac]ADM(14-52)]
7 | 49.6 nM | 67 nM | B4
8 | 5.26 nM | 2.9 nM | B5
